These results are taken from publication doi:10.1101/2024.06.18.599654 (bioRxiv, 2024).

The series concerns the molecule itself. The series is described as follows: SEC.

“And” between values parts separate entries of the source, which are not always exact repeats. Equal values may be shown once.

B1: PE11 (Rv1169c) esterase of Mycobacterium tuberculosis, recombinant His-tagged (enzyme)
chain: MSFVTTRPDSIGETAANLHEIGVTMSAHDDGVTPLITNVESPAHDLVSIVTSMLFSMHGELYKAIARQAHVIHESFVQTLQTSKTSYWLTELANRAGTST
In the case of B1, the “stoichiometry N” value was 4 and 2.
